Substrate in data set [1]: O=C(O)/C(O)=C/c1ccccc1
In words: purified protein. Particulars: 10 mM potassium phosphate, pH 7.3, 24 °C.

Substrate in data set [2]: O=C(O)/C=C/C=C(\O)C(=O)O
In words: purified protein. It counts as biochemical, Chloroflexus aurantiacus. The settings on record: 10 mM potassium phosphate, pH 7.3, 24 °C.

B1: hh4-OT (heterohexamer 4-oxalocrotonate tautomerase) (Chloroflexus aurantiacus J-10-fl) (protein)
chain 1: MLLLRITMLEGRSTEQKAELARALSAAAAAAFDVPLAEVRLIIQEVPPTHWTVGGISMAELRQQASTSTQGQ
chain 2: PMLEVFYSGDRPPDRTRKQAFAAEASAIFQRVIGTPPGRLQLIIQIVSPENTLAVIDLDRPDSDTTAEPDQQ
Regarding B1, in data set [1], the Michaelis constant (Km) is 121 ± 20 µM, the catalytic constant (kcat) was 13 s⁻¹ and the catalytic efficiency (kcat/Km) turned out to be 110000 M⁻¹ s⁻¹. In data set [2], the Michaelis constant (Km) is 70 ± 8 µM, the kcat came to 3000 ± 100 s⁻¹ and the specificity constant (kcat/Km) is 4.3e+07 M⁻¹ s⁻¹.
